Common to all, as to details: both partners purified
Assay [1] has as its target T1, yHsp70 (Ssa1) (yeast, UniProt P10591 1-642).
T1 construct: Yeast Hsp70 Ssa1, full length; The strain carries a 6xHis-SSA1 gene; The methods speak of cleavage of the His6-SUMO tag or His-tag in general, and it is not clear whether this holds for Ssa1; source: Pichia pastoris KM71H-Ssa1, purified (Hi-Trap, Superdex 200)
As to the kind of experiment: SAXS; mixtures of a Sti1 variant and Hsp70 at 1:1 and 1:2; solute 1 to 10 mg/ml; in-house SAXSess mc2; masses from I(0).

The target of assay [2] is T1, yHsp70 (Ssa1). The experiment in a line: SPR; Hsp70 amine-coupled to a CM5 chip, Sti1 variants as analyte; 40 mM Hepes pH 7.5, 20 mM KCl, 5 mM MgCl2, 0.005% Tween; 10 μl/min; 20 °C; Langmuir isotherm; affinities shown normalized to wild-type Sti1. (In general: In SPR one partner is held on a chip, and binding of the other changes the refractive index at the surface.)
Another assay concerns the target T2, yHsp90 (Hsp82) (yeast, UniProt P02829 1-709).
T2 construct: Yeast Hsp90 Hsp82; source: E. coli BL21 (DE3) Codon Plus, purified (Hi-Trap, Superdex 200); not shown: 6xHis-SUMO or thrombin-cleavable 6xHis, N-terminal, cleaved
As to the kind of experiment: AUC; ternary complexes, fluorescence detection: 0.5 μM fluorescein-labelled yHsp70 and 3 μM yHsp90 with 0.5 to 8 μM Sti1 variant; 10 mM potassium phosphate pH 7.5; 20 °C; 42,000 r.p.m.; dc/dt plots.

Assay [3] deals with T3, fluorescein-labelled yHsp70 (Ssa1) (yeast, UniProt P10591 1-642, 5-(and -6)-carboxyfluorescein covalently coupled (amine-reactive dye); sites not stated).
T3 construct: Yeast Hsp70 Ssa1, full length, labelled with carboxyfluorescein; Same protein as m11, with the fluorescent label used for AUC; also called fluorescently labelled yHsp70; fluorescently labelled Ssa1; source: Pichia pastoris KM71H-Ssa1, purified (Hi-Trap, Superdex 200), then labelled
T3 sequence (P10591 whole entry): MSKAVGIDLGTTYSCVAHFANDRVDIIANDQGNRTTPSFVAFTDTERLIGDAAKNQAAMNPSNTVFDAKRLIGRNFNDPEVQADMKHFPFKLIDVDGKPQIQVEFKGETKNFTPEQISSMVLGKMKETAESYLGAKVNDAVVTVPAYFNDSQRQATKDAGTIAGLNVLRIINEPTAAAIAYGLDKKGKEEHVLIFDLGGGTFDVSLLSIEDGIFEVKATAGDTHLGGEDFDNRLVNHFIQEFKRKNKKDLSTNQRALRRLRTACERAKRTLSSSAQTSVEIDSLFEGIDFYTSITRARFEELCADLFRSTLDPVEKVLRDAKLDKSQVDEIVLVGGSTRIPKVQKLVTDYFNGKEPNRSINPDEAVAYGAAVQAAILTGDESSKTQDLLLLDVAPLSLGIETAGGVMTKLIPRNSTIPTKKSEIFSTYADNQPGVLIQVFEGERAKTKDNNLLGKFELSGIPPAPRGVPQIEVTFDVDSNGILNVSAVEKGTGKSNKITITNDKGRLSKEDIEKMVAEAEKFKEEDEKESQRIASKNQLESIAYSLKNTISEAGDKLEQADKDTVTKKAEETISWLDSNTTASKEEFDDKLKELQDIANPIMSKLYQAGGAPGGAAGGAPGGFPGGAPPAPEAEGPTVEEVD
Described as above.

T1 sequence (P10591 whole entry): as above

B1: Sti1 (stress-inducible protein 1), wild type (natural protein, S. cerevisiae, UniProt P15705 1-589, looked up)
chain: MSLTADEYKQQGNAAFTAKDYDKAIELFTKAIEVSETPNHVLYSNRSACYTSLKKFSDALNDANECVKINPSWSKGYNRLGAAHLGLGDLDEAESNYKKALELDASNKAAKEGLDQVHRTQQARQAQPDLGLTQLFADPNLIENLKKNPKTSEMMKDPQLVAKLIGYKQNPQAIGQDLFTDPRLMTIMATLMGVDLNMDDINQSNSMPKEPETSKSTEQKKDAEPQSDSTTSKENSSKAPQKEESKESEPMEVDEDDSKIEADKEKAEGNKFYKARQFDEAIEHYNKAWELHKDITYLNNRAAAEYEKGEYETAISTLNDAVEQGREMRADYKVISKSFARIGNAYHKLGDLKKTIEYYQKSLTEHRTADILTKLRNAEKELKKAEAEAYVNPEKAEEARLEGKEYFTKSDWPNAVKAYTEMIKRAPEDARGYSNRAAALAKLMSFPEAIADCNKAIEKDPNFVRAYIRKATAQIAVKEYASALETLDAARTKDAEVNNGSSAREIDQLYYKASQQRFQPGTSNETPEETYQRAMKDPEVAAIMQDPVMQSILQQAQQNPAALQEHMKNPEVFKKIQTLIAAGIIRTGR
notes: Sti1, yeast cochaperone of Hsp70 and Hsp90, full length; also called wild-type Sti1; full-length Sti1; source: E. coli BL21 (DE3) Codon Plus, purified (Hi-Trap, Superdex 200); not shown: 6xHis-SUMO or thrombin-cleavable 6xHis, N-terminal, cleaved
In general, stoichiometry N refers to the number of molecules, sites or subunits per partner or assembly. Regarding B1, the “stoichiometry N” value with yHsp70 (Ssa1) [1] came out at 1.

B2: Sti1 R469A (natural protein, S. cerevisiae, UniProt P15705 1-589, looked up)
chain: MSLTADEYKQQGNAAFTAKDYDKAIELFTKAIEVSETPNHVLYSNRSACYTSLKKFSDALNDANECVKINPSWSKGYNRLGAAHLGLGDLDEAESNYKKALELDASNKAAKEGLDQVHRTQQARQAQPDLGLTQLFADPNLIENLKKNPKTSEMMKDPQLVAKLIGYKQNPQAIGQDLFTDPRLMTIMATLMGVDLNMDDINQSNSMPKEPETSKSTEQKKDAEPQSDSTTSKENSSKAPQKEESKESEPMEVDEDDSKIEADKEKAEGNKFYKARQFDEAIEHYNKAWELHKDITYLNNRAAAEYEKGEYETAISTLNDAVEQGREMRADYKVISKSFARIGNAYHKLGDLKKTIEYYQKSLTEHRTADILTKLRNAEKELKKAEAEAYVNPEKAEEARLEGKEYFTKSDWPNAVKAYTEMIKRAPEDARGYSNRAAALAKLMSFPEAIADCNKAIEKDPNFVRAYIAKATAQIAVKEYASALETLDAARTKDAEVNNGSSAREIDQLYYKASQQRFQPGTSNETPEETYQRAMKDPEVAAIMQDPVMQSILQQAQQNPAALQEHMKNPEVFKKIQTLIAAGIIRTGR
notes: source: E. coli BL21 (DE3) Codon Plus, purified (Hi-Trap, Superdex 200); not shown: 6xHis-SUMO or thrombin-cleavable 6xHis, N-terminal, cleaved
Consider B2, for which, in the assay with yHsp70 (Ssa1) [2], the binding result is “binds”.

B3: Sti1 N39A (natural protein, S. cerevisiae, UniProt P15705 1-589, looked up)
chain: MSLTADEYKQQGNAAFTAKDYDKAIELFTKAIEVSETPAHVLYSNRSACYTSLKKFSDALNDANECVKINPSWSKGYNRLGAAHLGLGDLDEAESNYKKALELDASNKAAKEGLDQVHRTQQARQAQPDLGLTQLFADPNLIENLKKNPKTSEMMKDPQLVAKLIGYKQNPQAIGQDLFTDPRLMTIMATLMGVDLNMDDINQSNSMPKEPETSKSTEQKKDAEPQSDSTTSKENSSKAPQKEESKESEPMEVDEDDSKIEADKEKAEGNKFYKARQFDEAIEHYNKAWELHKDITYLNNRAAAEYEKGEYETAISTLNDAVEQGREMRADYKVISKSFARIGNAYHKLGDLKKTIEYYQKSLTEHRTADILTKLRNAEKELKKAEAEAYVNPEKAEEARLEGKEYFTKSDWPNAVKAYTEMIKRAPEDARGYSNRAAALAKLMSFPEAIADCNKAIEKDPNFVRAYIRKATAQIAVKEYASALETLDAARTKDAEVNNGSSAREIDQLYYKASQQRFQPGTSNETPEETYQRAMKDPEVAAIMQDPVMQSILQQAQQNPAALQEHMKNPEVFKKIQTLIAAGIIRTGR
notes: also called TPR1-defective construct; source: E. coli BL21 (DE3) Codon Plus, purified (Hi-Trap, Superdex 200); not shown: 6xHis-SUMO or thrombin-cleavable 6xHis, N-terminal, cleaved
With B3, the binding result (with yHsp90 (Hsp82); in assay [3]; in the assay with yHsp70 (Ssa1) [2]) was “binds” throughout.

B4: Sti1 TPR2A–TPR2B (domain or fragment, S. cerevisiae)
chain: ADKEKAEGNKFYKARQFDEAIEHYNKAWELHKDITYLNNRAAAEYEKGEYETAISTLNDAVEQGREMRADYKVISKSFARIGNAYHKLGDLKKTIEYYQKSLTEHRTADILTKLRNAEKELKKAEAEAYVNPEKAEEARLEGKEYFTKSDWPNAVKAYTEMIKRAPEDARGYSNRAAALAKLMSFPEAIADCNKAIEKDPNFVRAYIRKATAQIAVKEYASALETLDAARTKDAEVNNGSSAREIDQLYYKASQ
notes: TPR2A-TPR2B segment of Sti1; also called TPR2A–TPR2B fragment; TPR1-lacking construct; source: E. coli BL21 (DE3) Codon Plus, purified (Hi-Trap, Superdex 200); not shown: 6xHis-SUMO or thrombin-cleavable 6xHis, N-terminal, cleaved
With B4, the binding result (in the assay with yHsp90 (Hsp82); in assay [3]; with yHsp70 (Ssa1) [2]) was “binds” in each case.

These data come from publication PMC4403447, “Hsp90 regulates the dynamics of its cochaperone Sti1 and the transfer of Hsp70 between modules” (Nature Communications, 2015).
